{
  "source": "paper PMC6498484",
  "data": [
    {"target": "T1, PoxCxrA17-150 (Penicillium oxalicum HP7-1) (UniProt A0A2H4WV05)", "T1 sequence": "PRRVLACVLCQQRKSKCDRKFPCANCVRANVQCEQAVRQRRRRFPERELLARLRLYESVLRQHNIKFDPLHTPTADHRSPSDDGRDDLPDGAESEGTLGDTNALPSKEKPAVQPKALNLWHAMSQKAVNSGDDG", "test": "EMSA", "conditions": "EMSA: 20 mM Tris-HCl pH 8.0, 50 mM KCl, 0.1 mg/mL BSA, 5% glycerol, 1 mM DTT, 1 ug salmon sperm DNA, ~50 ng probe, 30 min at 30 C; footprinting at 30 C", "values": [
      {"sequence": "AGGAGACGAACAAATGAAAAACAGTTGGCCAACAATTCAACCAAGACCGGCTTCCCTGGAATTGCGGGGAGGGGAGAGTCGTGAAAGTGGATAAGGCTCCTTAATTTTTTTTTTCCCTTCCTCCTGGCCATCGTGTTTTATGGAGGTTCGCTTCCGTCTTGACTATCCGCCGTCGCACTCTTAGTCTCCCCGTTGACCCTCTTTTTCTTCACATCGTCAGATCGTGATCGTTGATCGTTCGGTGCTCTTCTGCTTCTTTTGCTGCTCACCTCCTCCTCCCCCCAGCTGA (double strand) [PBM_PoxClrB-6']", "binding": "binds"},
      {"sequence": "GAGAGGCGAATTGCTTCAGGATCCACCCAAGGAAGCAACTATATAAGAAGAGGTGCCATCACCTCGACTCTGGTGTTCATCATCCATTCCTTCCTCATCTCCTCCACCACCCC (double strand) [PBM2 probe]", "binding": "no binding"},
      {"sequence": "CCCCTTTCATCAGATCCTCAAAGAACAAAATTGATCATCATCTCTTTTGATCTTTGATCCAATCCATCACA (double strand) [PBM1 probe]", "binding": "binds"},
      {"sequence": "AGGAGACGAACAAATGAAAAACAGTTGGCCAACAATTCAACCAAGACCGGCTTCCCTGGAATTGCGGGGAGGGGAGAGTCGTGAAAGTGGATAAGGCTCCTTAATTTTTTTTTTCCCTTCCTCCTGGCCATCGTGTTTTATGGAGGTTCGCTTCCGTCTTGACTATCCGCCGTCGCACTCTTAGTCTCCCCGTTGACCCTCTTTTTCTTCACATCGTCAGATCGTGATCGTTGATCGTTCGGTGCTCTTCTGCTTCTTTTGCTGCTCACCTCCTCCTCCCCCCAGCTGAGTCCTT (double strand) [PoxClrB-295]", "binding": "binds"},
      {"sequence": "GACTCAGCTGGGGGGAGGAGGAGGTGAGCAGCAAAAGAAGCAGAAGAGCACCGAACGATCAACGATCACGATCTGACGATGTGAAGAAAAAGAGGGTCAACGGGGAGACTAAGAGTGCGACGGCGGATAGTCAAGACGGAAGCGAACCTCCATAAAACACGATGGCCAGGAGGAAGGGAAAAAAAAAATTAAGGAGCCTTATCCACTTTCACGACTCTCCCCTCCCCGCAATTCCAGGGAAGCCGGTCTTGGTTGAATTGTTGGCCAACTGTTTTTCATTTGTTCGTCTCCT (double strand) [PBM_PoxClrB-3']", "binding": "binds"},
      {"sequence": "TGTGATGGATTGGATCAAAGATCAAAAGAGATGATGATCAATTTTGTTCTTTGAGGATCT (double strand) [PBM_POX05587-3]", "binding": "binds"},
      {"sequence": "AGGATCTGATGAAAGGGGGGTGGTGGAGGAGATGAGGAAGGAATGGATGATGAACACCAGAGTCGAGGTGATGGCACCTCTTCTTATATAGTTGCTTCCTTGGGTGGATCCTGAAGCAATTCGCCTCTC (double strand) [PBM_POX05587-6']", "binding": "binds"},
      {"sequence": "TTGAGGATCTGATGAAAGGGGGGTGGTGGAGGAGATGAGGAAGGAATGGATGATGAACACCAGAGTCGAGGTGATGGCACCTCTTCTTATATAGTTGCTTCCTTGGGTGGATCCTGAAGCAATTCGCCTCTC (double strand) [PBM_POX05587-3']", "binding": "binds"},
      {"sequence": "GGTGAGCAGCAAAAGAAGCAGAAGAGCACCGAACGATCAACGATCACGATCTGACGATGTGAAGAAAAAGAGGGTCAACGGGGAGACTAAGAGTGCGACGGCGGATAGTCAAGACGGAAGCGAACCTCCATAAAACACGATGGCCAGGAGGAAGGGAAAAAAAAAATTAAGGAGCCTTATCCACTTTCACGACTCTCCCCTCCCCGCAATTCCAGGGAAGCCGGTCTTGGTTGAATTGTTGGCCAACTGTTTTTCATTTGTTCGTCTCCT (double strand) [PoxClrB-270]", "binding": "no binding"},
      {"sequence": "TGTGATGGATTGGATCAAAGATCAAAAGAGATGATGATCAATTTTGTTCTTTGAGGA (double strand) [PBM_POX05587-6]", "binding": "binds"},
      {"sequence": "TGGGGGGAGGAGGAGGTGAGCAGCAAAAGAAGCAGAAGAGCACCGAACGATCAACGATCACGATCTGACGATGTGAAGAAAAAGAGGGTCAACGGGGAGACTAAGAGTGCGACGGCGGATAGTCAAGACGGAAGCGAACCTCCATAAAACACGATGGCCAGGAGGAAGGGAAAAAAAAAATTAAGGAGCCTTATCCACTTTCACGACTCTCCCCTCCCCGCAATTCCAGGGAAGCCGGTCTTGGTTGAATTGTTGGCCAACTGTTTTTCATTTGTTCGTCTCCT (double strand) [PoxClrB-284]", "binding": "no binding"}
    ]}
  ]
}
